Experimental data reported in article PMC6816377 (mAbs, 2019).
Substitutions are numbered along the chain they refer to. Each block holds one binder with its values, some of them ahead of it.

Key:
hen egg lysozyme [1] = target: T1, hen egg lysozyme (Gallus gallus (hen egg white), UniProt P00698); assay: flow cytometry on cells
hen egg lysozyme [2] = target: T1, hen egg lysozyme; assay: ELISA
hen egg lysozyme [3] = target: T1, hen egg lysozyme; assay: BLI

T1 sequence (P00698 19-147): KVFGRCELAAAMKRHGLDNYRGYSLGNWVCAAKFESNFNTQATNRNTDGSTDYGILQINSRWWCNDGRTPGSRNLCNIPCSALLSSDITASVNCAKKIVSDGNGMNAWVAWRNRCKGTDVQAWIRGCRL

binding result (hen egg lysozyme [3]): binds
B4: HEL23 variant 1 (antibody, V domains shown)
VH: EVQLRQSGAELMKPGASVKISCKATGYTFSNYWIGWVKQRPGHGLEWIGEILPGSGSTNYNEKFKGKATFTADTSSNTAYMQLSSLTSEDGAVYYCARDSSGGFVYWGRGTLVTVSA
VL: DIVLTQSPAIMSASLGERVTMTCTASSNVSSSYLHWYQQKPGSSPKLWIYSTSNLASGVPARFSGSGSGTSYSLTISSMEAEDAATYYCHQYHRSPPTFGAGTKLEIK

binding result (hen egg lysozyme [2]): binds
B5: HEL23 variant 3 (antibody, V domains shown)
VH: B4 VH with R5Q, C22S, S84N, G91S, V105A, R109Q
VL: B4 VL

Second part, the binder before the results:

B1: HEL23 (antibody, V domains shown)
VH: B4 VH with R5Q, G91S, V105A, R109Q
VL: B4 VL
binding result (hen egg lysozyme [1]): binds

B2: HEL23 variant 5 (antibody, V domains shown)
VH: B4 VH with R5Q, G54S, T78I, G91S, V105A, R109Q
VL: B4 VL
binding result (hen egg lysozyme [2]): binds

B3: HEL23 variant 4 (antibody, V domains shown)
VH: B4 VH with L4V, R5Q, M12K, G54S, G56S, G91S, V105A, R109Q, T111S
VL: B4 VL
binding result (hen egg lysozyme [2]): binds
